Measurements as given in patent US20250034594A1, “RNA-GUIDED GENOME RECOMBINEERING AT KILOBASE SCALE” (THE BOARD OF TRUSTEES OF THE LELAND STANFORD JUNIOR …, priority 2021, published 2025).

B1: SSAP_296: SEQ ID NO: 465; Peptostreptococcaceae bacterium VA2 (protein)
chain: QPFLVQRYPHLDVVLNDQVHVLKSFFFQNHIILYLYKYIECLQIFHKPLLKGDRGKVIGYYAVYHLEPNGYNFVFMTYDEVKNHGKKYSKNFEGGIWEKEFDSMAKKTVIKKLLKYAPLSIEMQKAVTFDESVKGSIDNDMLLVESIEDVEEIQLDTNI
modifications: Peptostreptococcaceae bacterium VA2
B2: SSAP_117: SEQ ID NO: 286; Enterocloster bolteae (protein, listed as Enterocloster bolteae)
chain: GVNVKHELEQRAAGQGASVRLTKNMTIVDMVKALEPEIRRALPAVLTPERFTRMALSSINNTPELAECTPMSFIAALLNAAQLGLEPNTPLGQAYLIPYKNKGKLECQFQLGYKGLIDLAYRTGQVQIIQAQVVREFDSFEYQYGLDSKLVHKPGEGARGEITYVYGLFKLSNGGYGFEVSNKTEMDTFAARYSKSFGSKYSPWTEDYESMAKKTVIKRVLKYAPISSDFQKALSMDETIKTGIAVDMSEIRNECLPEEAGSEAA
B3: SSAP_111: SEQ ID NO: 280; Siminovitchia fordii (protein, listed as Siminovitchia fordii)
chain: ATNQDIKNQLANKANGNKPASPANTIAAYLKKMGPEIEKALPKHMDADRLARIALTTIRTTPKLLECNISSLMGAVMQSAQLGLEPGLIGHCYIIPYGKEATFIIGYKGMIDLARRSGQIQNIYAHAVFENDEFDYALGLHPKLEHKPAGSNRGEIIGAYAVAHFKDGGYQFEYMAKEDIEKRKSRSAAARSKHSPWATDYEEMAKKTVIRHMWKYLPISVEIQQQAIQDEVVRKDVTSEPEFIDMEDMPEVEEGQSEESEQVEAPFD
B4: SSAP_151: SEQ ID NO: 320; Mammaliicoccus (protein, listed as Mammaliicoccus sp.)
chain: ATNESIKNQVASRKKNEVQNKSPKTQLNDLLIKMGPEIQRALPKHMDADRMARIAMTAVSTTPKLLECDQMSFIGALMQASQLGVEPNTGLGQAYLIPYGGKVQFQLSYKGLIDLATRSGQYKAIYAHEVFPNDEFNYQYGLFKNLEHIPSQEPEGEPIGYYAVYHLKNGGYDFVYWTRERVDKHAKDFSQAVQKGWTSPWKTNYDAMAKKTVLKEVLKYAPKSIEMNKAVNSDSTIKDEINEDMSSVIDITDYEEVNDQQEEKKEESK
B5: SSAP_59: SEQ ID NO: 228 (protein)
chain: SEIQQQAEAQTQAHPTAVLDDYRGAIASVAPPGTNIDLFIRMTKSNVNRSDEIVAAVKRNPGLFMQAVMDSAALGHIPGSEYYYLTPRRDGISGIESWKGVAKRIFNTGRYQRIVCEVVYEGEQWEFQPGEDLKPKHVIDWDARQVGSKVRFTYAYAVDFEGNPSTVAVCTKLDLDKAQKQSRGKVWDQWYEQMAKKTAIKRLEDFVDTSAVDLRADGSSRRHSAEVAE
B6: SSAP_119: SEQ ID NO: 288; Bacillus albus (protein, listed as Bacillus albus)
chain: ATNEKLKNQLANRKESAPATPEQTVEAYMKKMAPKMAEVLPKHMDMGRMSRMALTTMRTSPKLLNCTVSSLMGAVMQAVQLGLEPGLLGHCYILPYKGEATFIIGYKGMIDLARRSGHIQSIYAHAVHENDEFDYELGLHPKLEHKPVHGDRGAFVGAYAVAHFKDGGYQMEFMPKSEIEKRRKRSASANSSFSPWKSDYEEMAKKTVIRYIFKYLPISIEVQLLAAQDEVVRKDITEEPEFIEADPIDVEQPTTEGDGQQEFSIEE
B7: SSAP_141: SEQ ID NO: 310; Hungatella hathewayi (protein, listed as Hungatella hathewayi)
chain: RRDRNVTAVKQELEKKAAGTSQAVKLTKNMTIVDMVKALEPEIKRALPSILTPERFTRMALSAINNTPKLAECTPMSFIAALMNAAQLGLEPNTPLGQAYLIPYKNKGVLECQFQLGYRGMIDLAYRNERMQSIEAQTVYEHDEFFYELGLHPALVHRPTFEDRGEIRAFYAIFRLDNGGYRFEVMSKSYVDAYAMRYSKAFTSEFSPWKSNYEGMAKKTVIKQLLKYAPVKSEFQKAITLDETVKTELSVDMSEVQNEDLSETLTAESAA
B8: SSAP_135: SEQ ID NO: 304; Amycolatopsis arida (protein, listed as Amycolatopsis arida)
chain: HGTALNPERFTRVALTVIRQSADLQRCRPESLLGALMTSAQLGLEPGPLGEAYLVPYGDQVTFIPGYRGLIKLAWQSGQLRHISARVVHEGDRFSYSYGLHPDLIHQPTRGDRGPITDVYAAATLIDGGVEFEVLDVATVETIRARSRAGRKGPWVTDWEAMARKTAIRQLAKWLPMATVMSRAIAAEGTVRTDLDADALDDLTADPGPEVLDADPAWDGPEPPGDQARNQEPTTQGDA
B9: SSAP_308: SEQ ID NO: 477; uncultured organism (protein)
chain: SNELQNIKPEVFGEVEDKLGSLADNNGIDLPENYSARNALKQAYLKLQSKDEPVFDKYKDETIYNALLDTLTQGLNPGKDQVYYIGYGNHLTAQKSYFGNIALAKRMAGVQEVSSNVILEGDEVDISIERGQQVIESHDRNFDSMDGQVKGAYAVISFEDERKDKYEIMTLKELKQAWAQGKSFGGNGKSPHHKFTKEMAKKTVINRALKPLIKASDDSGLIKEKPKLEKLKDGQQERTEGEKIEEVDVDKEEVVEVDYDV
modifications: uncultured organism
B10: SSAP_92: SEQ ID NO: 261; Edwardsiella piscicida (protein, listed as Edwardsiella piscicida)
chain: TNNQQPPIATADLQKAQSQAPAVKPDQKLINFINQPSMKGQIAAALPRHMAPDRMIRIITTEIRKTPALATCDMQSFIGSVVQCSQLGLEPGGALGHAYLLPFGNGKAKSGQSNVQLIIGYRGMIDLARRSGQIVSISARTVRDGDQFHYEYGLDETLKHVPGDNESSPITHVYAVAKLKDGGVQFEVMTFNQIEKVRGQSKAGNNGPWQTHWEEMAKKTVIRRLFKYLPVSIEMQKAVILDEKAEANIDQENASVISAEFSVVED
B11: SSAP_75: SEQ ID NO: 244 (protein)
chain: ANELGIFSVDNLNMTTIKQYLDGGGKASDAELVLLINLCKQNNMNPFMKEVYFIKYGNQPAQIVVSRDFYRKRAFQNPNFAGIEVGVIVLNKDGVLEHNEGTFKTHEQELVGAWARVHLKNTEIPVYVAVSYDEYVQMKDGHPNKMWTNKPCTMLGKVAESQALRMAFPAEFSGTYGEEELPEPEKEPREVNGVKEPDRAQIESFDKEDYAAKKIEELKEKAQPQKEVVKETGEVIDKITAEDF
B12: SSAP_19: SEQ ID NO: 188 (protein)
chain: NTPTMKRKFEEVLHENANAFMSNVMTLVSNDSYLAESEPMSILSGALTAATLNLGLDKNLGYAYLVPFNTKNKQTGKWERKAQFILGYKGYIQLAQRSGKYKALNVIEVYEGELLSWNRLTEEFEFDPNGRQSDDVIGYVGYFELLNGFKKTVYWTKQEIEAHRIANSKDKEKTKLSGVWATDYNAMARKTVLRNMLSKWGILSIEMQEATTSDEKVQQMQEDGNIISETEVEENTTMKTAEVINEADSDSLNQTDLFDTKNPPLE
B13: SSAP_153: SEQ ID NO: 322; Staphylococcus intermedius (protein, listed as Staphylococcus intermedius)
chain: ANANSFKEQVSKNEVQETNNEKPKGPRQQVSDLLERMAPEIQKALPSHMSAERMARIAMTAISSNPQLLECNPRSLIGALLQASQIGLEPNTALGQAYLIPYYNHKKKEFEAQLQLSYLGLIELATRTGQYKAIYAHEVYKEDEFYYEYGLHKNLVHKPVDDPNGEPVGYYAVYHLQNGGFDFAYWTKNKIELHAGNYSKAVQKGWNSPWKTDFNAMAKKTVLKDLLKYAPKSIEISQAVGSDSKVTEINKQGEIIDITEYGQEALEG

What was measured:
Type in all cases: cell-based
gene editing with dCas9 = experiment: Screen of 322 new SSAP proteins, gene editing activity with dCas9 (Table 5); set-up: dCas9 with SSAP activity: scale not given here
In short: (§1)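 Sequence-mined SSAPs (n=322), synthesized; editing activity screened with Cas9 or dCas9.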

gene editing with Cas9 = experiment: Screen of 322 new SSAP proteins, gene editing activity with Cas9 (Table 5); set-up: Cas9 with SSAP activity: scale not given here
In short: as §1

[1] = tested on: gene editing with Cas9 and dCas9; experiment: Screen of 322 new SSAP proteins, activity across all experiments (Cas9 and dCas9, Table 5); set-up: scale not given here
In short: as §1

Row | Molecule | dCas9 with SSAP activity (gene editing with dCas9) | dCas9 with SSAP activity (normalized) (gene editing with dCas9) | Cas9 with SSAP activity (gene editing with Cas9) | Cas9 with SSAP activity (normalized) (gene editing with Cas9) | Activity across all experiments [1]
1 | B1 | −1.749 | −0.598 | 0.244 | 0.617 | −0.753
2 | B2 | −1.263 | −0.179 | −4.474 | −1.192 | −2.868
3 | B3 | −1.417 | −0.419 | 0.173 | 0.129 | −0.622
4 | B4 | −1.257 | −0.422 | −4.713 | −0.683 | −2.985
5 | B5 | −1.201 | −0.336 | 0.218 | 0.538 | −0.491
6 | B6 | −1.189 | −0.361 | −0.911 | −3.635 | −1.050
7 | B7 | −1.179 | −0.244 | −2.047 | −0.694 | −1.613
8 | B8 | −1.826 | −2.544 | −1.283 | −0.722 | −1.554
9 | B9 | −1.277 | −1.011 | −0.693 | −1.286 | −0.985
10 | B10 | −1.516 | −0.177 | 2.341 | 2.795 | 0.412
11 | B11 | −1.658 | −0.897 | 0.284 | 0.225 | −0.687
12 | B12 | −1.396 | −0.389 | −0.298 | −0.329 | −0.847
13 | B13 | −1.534 | −0.179 | −2.201 | −0.296 | −1.867
